Target: IGFIIR extracellular domain (domains 10-14; M6PR) (human, UniProt P11717 1510-2108)
Test: SPR

Sequence of IGFIIR extracellular domain (domains 10-14; M6PR) (P11717 1510-2108): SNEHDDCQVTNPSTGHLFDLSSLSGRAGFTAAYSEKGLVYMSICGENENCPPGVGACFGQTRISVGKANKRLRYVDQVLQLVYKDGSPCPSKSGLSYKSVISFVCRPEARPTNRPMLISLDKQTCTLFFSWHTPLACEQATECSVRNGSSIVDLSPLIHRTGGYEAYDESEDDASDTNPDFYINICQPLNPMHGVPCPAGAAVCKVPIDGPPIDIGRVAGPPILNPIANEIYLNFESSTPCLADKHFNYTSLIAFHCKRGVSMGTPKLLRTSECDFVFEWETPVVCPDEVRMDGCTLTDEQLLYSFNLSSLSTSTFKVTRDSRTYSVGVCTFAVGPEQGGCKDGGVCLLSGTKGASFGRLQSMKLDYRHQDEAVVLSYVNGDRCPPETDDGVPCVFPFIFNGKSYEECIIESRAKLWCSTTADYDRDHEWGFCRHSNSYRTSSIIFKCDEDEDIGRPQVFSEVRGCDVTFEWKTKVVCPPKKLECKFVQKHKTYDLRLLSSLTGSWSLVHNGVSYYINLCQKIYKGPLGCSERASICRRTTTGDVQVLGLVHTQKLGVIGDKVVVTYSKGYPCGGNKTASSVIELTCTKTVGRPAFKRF

B1: DNA aptamer-20 (structured_DNA)
DNA: GGGCGCGTAGATGACGAGCAGTCCTAACATCGTTTAGGAC
  Kd: 35.5 nM

B2: RNA aptamer-20 (structured_RNA)
RNA: GGGCGCGUAGAUGACGAGCAGUCCUAACAUCGUUUAGGAC
  Kd: 20 nM
